Test results as given in the RNAGym collection of RNA variant scans (doi:10.7554/elife.90254).

B1: LINE1-full (parent)
chain: UACGUAGGUGGUUUUCCCCUGAUAGUGCUAAGGGGGCCUGGAAGUUUGGACUGGGCAGAGCUCAACACAGCGUGGCAAAGUGGCUGUGGCUAGACUGCCUCUCUGGAUUCCUCGUCACUCAGCAGGGCAUCUCUGAGAGAAAUGCC

Variants of: B1
Assay: self-cleavage, relative activity (ratio to wild type); higher = more cleavage; in vitro, sequencing; the parent is a self-cleaving ribozyme

| Variant | self-cleavage |
| --- | --- |
| UACGUAGGUGGUUUUCCCCUGAUAGUGCUAAGGGGGCCUGGAAGUUUGGACUGGGCAGAGCUCAACACAGCGUGGCAAAGUGGCUGUGGCUAGACUGCCUCUCUGGAUUCCUCGUCACUCAGCAGGGCACCUCUGAGAGAGAUGCC [U130C A141G] | 1.55 |
| UACGUAGGUGGUUUUCCCCUGAUAGUGCUAAGGGGGCCUGGAAGUUUGGACUGGGCAGAGCUCAACACAGCGUGGCAAAGUGGCUGUGGCUAGACUGCCUCUCUGGAUUCCUCGUCACUCAGCAGGGCACCUCUGAGAGAAGUGCC [U130C A142G] | 1.37 |
| UACGUAGGUGGUUUUCCCCUGAUAGUGCUAAGGGGGCCUGGAAGUUUGGACUGGGCAGAGCUCAACACAGCGUGGCAAAGUGGCUGUGGCUAGACUGCCUCUCUGGAUUCCUCGUCACUCAGCAGGGCACCUCUGAGAGAAUUGCC [U130C A142U] | 1.6 |
| UACGUAGGUGGUUUUCCCCUGAUAGUGCUAAGGGGGCCUGGAAGUUUGGACUGGGCAGAGCUCAACACAGCGUGGCAAAGUGGCUGUGGCUAGACUGCCUCUCUGGAUUCCUCGUCACUCAGCAGGGCACUUCUGAGAGAAAUGCC [U130C C131U] | 1.28 |
| UACGUAGGUGGUUUUCCCCUGAUAGUGCUAAGGGGGCCUGGAAGUUUGGACUGGGCAGAGCUCAACACAGCGUGGCAAAGUGGCUGUGGCUAGACUGCCUCUCUGGAUUCCUCGUCACUCAGCAGGGCACCUUUGAGAGAAAUGCC [U130C C133U] | 1.42 |
| UACGUAGGUGGUUUUCCCCUGAUAGUGCUAAGGGGGCCUGGAAGUUUGGACUGGGCAGAGCUCAACACAGCGUGGCAAAGUGGCUGUGGCUAGACUGCCUCUCUGGAUUCCUCGUCACUCAGCAGGGCACCUCUGAGAGAAAUGCU [U130C C146U] | 1.52 |
| UACGUAGGUGGUUUUCCCCUGAUAGUGCUAAGGGGGCCUGGAAGUUUGGACUGGGCAGAGCUCAACACAGCGUGGCAAAGUGGCUGUGGCUAGACUGCCUCUCUGGAUUCCUCGUCACUCAGCAGGGCACCUCUUAGAGAAAUGCC [U130C G135U] | 0.97 |
| UACGUAGGUGGUUUUCCCCUGAUAGUGCUAAGGGGGCCUGGAAGUUUGGACUGGGCAGAGCUCAACACAGCGUGGCAAAGUGGCUGUGGCUAGACUGCCUCUCUGGAUUCCUCGUCACUCAGCAGGGCACCUCUGAGAAAAAUGCC [U130C G139A] | 1.5 |
| UACGUAGGUGGUUUUCCCCUGAUAGUGCUAAGGGGGCCUGGAAGUUUGGACUGGGCAGAGCUCAACACAGCGUGGCAAAGUGGCUGUGGCUAGACUGCCUCUCUGGAUUCCUCGUCACUCAGCAGGGCACCUCAGAGAGAAAUGCC [U130C U134A] | 1 |
| UACGUAGGUGGUUUUCCCCUGAUAGUGCUAAGGGGGCCUGGAAGUUUGGACUGGGCAGAGCUCAACACAGCGUGGCAAAGUGGCUGUGGCUAGACUGCCUCUCUGGAUUCCUCGUCACUCAGCAGGGCAGCUCUGAGAGAAACGCC [U130G U143C] | 1.5 |
| UACGUAGGUGGUUUUCCCCUGAUAGUGCUAAGGGGGCCUGGAAGUUUGGACUGGGCAGAGCUCAACACAGCGUGGCAAAGUGGCUGUGGCUAGACUGCCUCUCUGGAUUCCUCGUCACUCAGCAGGGCAUAUCUAAGAGAAAUGCC [C131A G135A] | 1.55 |
| UACGUAGGUGGUUUUCCCCUGAUAGUGCUAAGGGGGCCUGGAAGUUUGGACUGGGCAGAGCUCAACACAGCGUGGCAAAGUGGCUGUGGCUAGACUGCCUCUCUGGAUUCCUCGUCACUCAGCAGGGCAUGUCUGAGAGAAGUGCC [C131G A142G] | 0.36 |
| UACGUAGGUGGUUUUCCCCUGAUAGUGCUAAGGGGGCCUGGAAGUUUGGACUGGGCAGAGCUCAACACAGCGUGGCAAAGUGGCUGUGGCUAGACUGCCUCUCUGGAUUCCUCGUCACUCAGCAGGGCAUUUCUGGGAGAAAUGCC [C131U A136G] | 1.39 |
| UACGUAGGUGGUUUUCCCCUGAUAGUGCUAAGGGGGCCUGGAAGUUUGGACUGGGCAGAGCUCAACACAGCGUGGCAAAGUGGCUGUGGCUAGACUGCCUCUCUGGAUUCCUCGUCACUCAGCAGGGCAUUUCUGAGGGAAAUGCC [C131U A138G] | 1.36 |
| UACGUAGGUGGUUUUCCCCUGAUAGUGCUAAGGGGGCCUGGAAGUUUGGACUGGGCAGAGCUCAACACAGCGUGGCAAAGUGGCUGUGGCUAGACUGCCUCUCUGGAUUCCUCGUCACUCAGCAGGGCAUUUCUGAGAGAAGUGCC [C131U A142G] | 1.61 |
| UACGUAGGUGGUUUUCCCCUGAUAGUGCUAAGGGGGCCUGGAAGUUUGGACUGGGCAGAGCUCAACACAGCGUGGCAAAGUGGCUGUGGCUAGACUGCCUCUCUGGAUUCCUCGUCACUCAGCAGGGCAUUUCUGAGAGAAAGGCC [C131U U143G] | 0.59 |
| UACGUAGGUGGUUUUCCCCUGAUAGUGCUAAGGGGGCCUGGAAGUUUGGACUGGGCAGAGCUCAACACAGCGUGGCAAAGUGGCUGUGGCUAGACUGCCUCUCUGGAUUCCUCGUCACUCAGCAGGGCAUCACUGAGAGGAAUGCC [U132A A140G] | 1.41 |
| UACGUAGGUGGUUUUCCCCUGAUAGUGCUAAGGGGGCCUGGAAGUUUGGACUGGGCAGAGCUCAACACAGCGUGGCAAAGUGGCUGUGGCUAGACUGCCUCUCUGGAUUCCUCGUCACUCAGCAGGGCAUCACUGAGAGAUAUGCC [U132A A141U] | 0.14 |
| UACGUAGGUGGUUUUCCCCUGAUAGUGCUAAGGGGGCCUGGAAGUUUGGACUGGGCAGAGCUCAACACAGCGUGGCAAAGUGGCUGUGGCUAGACUGCCUCUCUGGAUUCCUCGUCACUCAGCAGGGCAUCACUGAAAGAAAUGCC [U132A G137A] | 1.7 |
| UACGUAGGUGGUUUUCCCCUGAUAGUGCUAAGGGGGCCUGGAAGUUUGGACUGGGCAGAGCUCAACACAGCGUGGCAAAGUGGCUGUGGCUAGACUGCCUCUCUGGAUUCCUCGUCACUCAGCAGGGCAUCACUGAGAAAAAUGCC [U132A G139A] | 1.33 |
